The source of these data is paper PMC11438954 (Nature Communications, 2024).

Experiment [1] has as its target NavMs (NavMs F208L, referred to as WT in the paper), prokaryotic voltage-gated sodium channel from Magnetococcus marinus (Magnetococcus marinus) (UniProt A0L5S6). The experiment is described as follows: crystal structure; NavMs (10 mg/ml, 300 uM) with 0.5 mM riluzole in 1% DMSO, or 1% DMSO alone; sitting drops at 4 °C, 30-35% PEG 300, 100 mM HEPES pH 7, 0-100 mM NaCl, HEGA-10 detergent; space group I422, one monomer per asymmetric unit, tetramer by crystal symmetry.

Another experiment has as its target T1, NavMs (Magnetococcus marinus, UniProt A0L5S6, F208L).
T1 construct: gene Mmc1_0798; full-length homotetrameric channel, thrombin-treated
The experiment is described as follows: X-ray crystal structure with sulphur anomalous signal; […]-19F STD NMR; IC50 from whole-cell patch clamp (SSI shift) in HEK293T cells. Format: cell-based. (In general: In patch-clamp work, channel activity is measured electrically.)

T1 sequence (A0L5S6 entry or part of it F208L): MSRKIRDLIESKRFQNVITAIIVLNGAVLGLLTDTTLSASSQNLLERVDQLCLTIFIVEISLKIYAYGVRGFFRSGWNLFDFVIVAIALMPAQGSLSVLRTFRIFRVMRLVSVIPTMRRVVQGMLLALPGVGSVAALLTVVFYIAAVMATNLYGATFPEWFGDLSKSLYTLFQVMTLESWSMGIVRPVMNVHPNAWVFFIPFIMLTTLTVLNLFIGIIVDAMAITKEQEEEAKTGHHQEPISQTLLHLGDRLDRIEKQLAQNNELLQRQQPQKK

“NavMs (NavMs F208L, referred to as WT in the paper), prokaryotic voltage-gated sodium channel from Magnetococcus marinus (from UniProt A0L5S6 1-274) (natural protein)”: the stoichiometry N (as a rule, a count of units in the complex or per binding partner) in experiment [1] amounted to 4.

As to `Nc1nc2ccc(OC(F)(F)F)cc2s1` [riluzole, 2-amino-6-(trifluoromethoxy)benzothiazole], the IC50 (commonly the concentration at which inhibition is half-maximal) at NavMs was determined as 2000 nM.
